According to patent publication US20130005646A1 (Novo Nordisk, published 2013):
Starred links: 1 amine or outer side, 2 acyl side, 3 side chain; linkers in the order of their positions; H or OH if unused. Positions of bridges follow the written chain, without caps; N, C: chain ends. Groups on a side chain read outwards from the residue. No end group written: not given here. *: point of attachment. C20 diacid = O=C(O)CCCCCCCCCCCCCCCCCCC(=O)*; C18 diacid = O=C(O)CCCCCCCCCCCCCCCCC(=O)*; γGlu = O=C(O)[C@H](CCC(=O)[*:2])N[*:1]; AEEA = NCCOCCOCC(=O)O

B1: N-alpha-[(S)-4-Carboxy-4-(19-carboxynonadecanoylamino)butyryl]-[des1,Glu14,His17,His35]-pramlintide (peptide)
peptide: {C20 diacid-γGlu}-CNTATCATQRLAEFLHHSSNNFGPILPPTNVGSHTY-NH2
modifications: disulfide 1-6
SMILES: CC[C@H](C)[C@H](NC(=O)[C@@H]1CCCN1C(=O)CNC(=O)[C@H](Cc1ccccc1)NC(=O)[C@H](CC(N)=O)NC(=O)[C@H](CC(N)=O)NC(=O)[C@H](CO)NC(=O)[C@H](CO)NC(=O)[C@H](Cc1c[nH]cn1)NC(=O)[C@H](Cc1c[nH]cn1)NC(=O)[C@H](CC(C)C)NC(=O)[C@H](Cc1ccccc1)NC(=O)[C@H](CCC(=O)O)NC(=O)[C@H](C)NC(=O)[C@H](CC(C)C)NC(=O)[C@H](CCCNC(=N)N)NC(=O)[C@H](CCC(N)=O)NC(=O)[C@@H](NC(=O)[C@H](C)NC(=O)[C@@H]1CSSC[C@H](NC(=O)CC[C@H](NC(=O)CCCCCCCCCCCCCCCCCCC(=O)O)C(=O)O)C(=O)N[C@@H](CC(N)=O)C(=O)N[C@@H]([C@@H](C)O)C(=O)N[C@@H](C)C(=O)N[C@@H]([C@@H](C)O)C(=O)N1)[C@@H](C)O)C(=O)N[C@@H](CC(C)C)C(=O)N1CCC[C@H]1C(=O)N1CCC[C@H]1C(=O)N[C@H](C(=O)N[C@@H](CC(N)=O)C(=O)N[C@H](C(=O)NCC(=O)N[C@@H](CO)C(=O)N[C@@H](Cc1c[nH]cn1)C(=O)N[C@H](C(=O)N[C@@H](Cc1ccc(O)cc1)C(N)=O)[C@@H](C)O)C(C)C)[C@@H](C)O
B2: N-alpha-[(S)-4-Carboxy-4-(19-carboxynonadecanoylamino)butyryl]-[Glu14,His17,Arg18,His35]-pramlintide (peptide)
peptide: {C20 diacid-γGlu}-KCNTATCATQRLAEFLHRSSNNFGPILPPTNVGSHTY-NH2
modifications: disulfide 2-7
SMILES: CC[C@H](C)[C@H](NC(=O)[C@@H]1CCCN1C(=O)CNC(=O)[C@H](Cc1ccccc1)NC(=O)[C@H](CC(N)=O)NC(=O)[C@H](CC(N)=O)NC(=O)[C@H](CO)NC(=O)[C@H](CO)NC(=O)[C@H](CCCNC(=N)N)NC(=O)[C@H](Cc1c[nH]cn1)NC(=O)[C@H](CC(C)C)NC(=O)[C@H](Cc1ccccc1)NC(=O)[C@H](CCC(=O)O)NC(=O)[C@H](C)NC(=O)[C@H](CC(C)C)NC(=O)[C@H](CCCNC(=N)N)NC(=O)[C@H](CCC(N)=O)NC(=O)[C@@H](NC(=O)[C@H](C)NC(=O)[C@@H]1CSSC[C@H](NC(=O)[C@H](CCCCN)NC(=O)CC[C@H](NC(=O)CCCCCCCCCCCCCCCCCCC(=O)O)C(=O)O)C(=O)N[C@@H](CC(N)=O)C(=O)N[C@@H]([C@@H](C)O)C(=O)N[C@@H](C)C(=O)N[C@@H]([C@@H](C)O)C(=O)N1)[C@@H](C)O)C(=O)N[C@@H](CC(C)C)C(=O)N1CCC[C@H]1C(=O)N1CCC[C@H]1C(=O)N[C@H](C(=O)N[C@@H](CC(N)=O)C(=O)N[C@H](C(=O)NCC(=O)N[C@@H](CO)C(=O)N[C@@H](Cc1c[nH]cn1)C(=O)N[C@H](C(=O)N[C@@H](Cc1ccc(O)cc1)C(N)=O)[C@@H](C)O)C(C)C)[C@@H](C)O
B3: N-alpha-[(S)-4-Carboxy-4-(19-carboxynonadecanoylamino)butyryl]-[His1,Glu14,His17,Arg18,His35]-pramlintide (peptide)
peptide: {C20 diacid-γGlu}-HCNTATCATQRLAEFLHRSSNNFGPILPPTNVGSHTY-NH2
modifications: disulfide 2-7
SMILES: CC[C@H](C)[C@H](NC(=O)[C@@H]1CCCN1C(=O)CNC(=O)[C@H](Cc1ccccc1)NC(=O)[C@H](CC(N)=O)NC(=O)[C@H](CC(N)=O)NC(=O)[C@H](CO)NC(=O)[C@H](CO)NC(=O)[C@H](CCCNC(=N)N)NC(=O)[C@H](Cc1c[nH]cn1)NC(=O)[C@H](CC(C)C)NC(=O)[C@H](Cc1ccccc1)NC(=O)[C@H](CCC(=O)O)NC(=O)[C@H](C)NC(=O)[C@H](CC(C)C)NC(=O)[C@H](CCCNC(=N)N)NC(=O)[C@H](CCC(N)=O)NC(=O)[C@@H](NC(=O)[C@H](C)NC(=O)[C@@H]1CSSC[C@H](NC(=O)[C@H](Cc2c[nH]cn2)NC(=O)CC[C@H](NC(=O)CCCCCCCCCCCCCCCCCCC(=O)O)C(=O)O)C(=O)N[C@@H](CC(N)=O)C(=O)N[C@@H]([C@@H](C)O)C(=O)N[C@@H](C)C(=O)N[C@@H]([C@@H](C)O)C(=O)N1)[C@@H](C)O)C(=O)N[C@@H](CC(C)C)C(=O)N1CCC[C@H]1C(=O)N1CCC[C@H]1C(=O)N[C@H](C(=O)N[C@@H](CC(N)=O)C(=O)N[C@H](C(=O)NCC(=O)N[C@@H](CO)C(=O)N[C@@H](Cc1c[nH]cn1)C(=O)N[C@H](C(=O)N[C@@H](Cc1ccc(O)cc1)C(N)=O)[C@@H](C)O)C(C)C)[C@@H](C)O
B4: N-epsilon17-[2-(2-{2-[2-(2-{2-[(S)-4-Carboxy-4-(17-carboxyheptadecanoylamino)butyrylamino]ethoxy}ethoxy)acetylamino]ethoxy}ethoxy)acetyl]-[Glu14,Lys17]-pramlint … (peptide)
peptide: KCNTATCATQRLAEFLK([AEEA-AEEA-γGlu-C18 diacid])HSSNNFGPILPPTNVGSNTY-NH2
modifications: disulfide 2-7; N-terminus assumed
SMILES: CC[C@H](C)[C@H](NC(=O)[C@@H]1CCCN1C(=O)CNC(=O)[C@H](Cc1ccccc1)NC(=O)[C@H](CC(N)=O)NC(=O)[C@H](CC(N)=O)NC(=O)[C@H](CO)NC(=O)[C@H](CO)NC(=O)[C@H](Cc1c[nH]cn1)NC(=O)[C@H](CCCCNC(=O)COCCOCCNC(=O)COCCOCCNC(=O)CC[C@H](NC(=O)CCCCCCCCCCCCCCCCC(=O)O)C(=O)O)NC(=O)[C@H](CC(C)C)NC(=O)[C@H](Cc1ccccc1)NC(=O)[C@H](CCC(=O)O)NC(=O)[C@H](C)NC(=O)[C@H](CC(C)C)NC(=O)[C@H](CCCNC(=N)N)NC(=O)[C@H](CCC(N)=O)NC(=O)[C@@H](NC(=O)[C@H](C)NC(=O)[C@@H]1CSSC[C@H](NC(=O)[C@@H](N)CCCCN)C(=O)N[C@@H](CC(N)=O)C(=O)N[C@@H]([C@@H](C)O)C(=O)N[C@@H](C)C(=O)N[C@@H]([C@@H](C)O)C(=O)N1)[C@@H](C)O)C(=O)N[C@@H](CC(C)C)C(=O)N1CCC[C@H]1C(=O)N1CCC[C@H]1C(=O)N[C@H](C(=O)N[C@@H](CC(N)=O)C(=O)N[C@H](C(=O)NCC(=O)N[C@@H](CO)C(=O)N[C@@H](CC(N)=O)C(=O)N[C@H](C(=O)N[C@@H](Cc1ccc(O)cc1)C(N)=O)[C@@H](C)O)C(C)C)[C@@H](C)O
B5: N-epsilon25-[2-(2-{2-[2-(2-{2-[(S)-4-Carboxy-4-(17-carboxyheptadecanoylamino)butyrylamino]ethoxy}ethoxy)acetylamino]ethoxy}ethoxy)acetyl]-[Glu14,Ser21,Lys25]-pr … (peptide)
peptide: KCNTATCATQRLAEFLVHSSSNFGK([AEEA-AEEA-γGlu-C18 diacid])ILPPTNVGSNTY-NH2
modifications: disulfide 2-7; N-terminus assumed
SMILES: CC[C@H](C)[C@H](NC(=O)[C@H](CCCCNC(=O)COCCOCCNC(=O)COCCOCCNC(=O)CC[C@H](NC(=O)CCCCCCCCCCCCCCCCC(=O)O)C(=O)O)NC(=O)CNC(=O)[C@H](Cc1ccccc1)NC(=O)[C@H](CC(N)=O)NC(=O)[C@H](CO)NC(=O)[C@H](CO)NC(=O)[C@H](CO)NC(=O)[C@H](Cc1c[nH]cn1)NC(=O)[C@@H](NC(=O)[C@H](CC(C)C)NC(=O)[C@H](Cc1ccccc1)NC(=O)[C@H](CCC(=O)O)NC(=O)[C@H](C)NC(=O)[C@H](CC(C)C)NC(=O)[C@H](CCCNC(=N)N)NC(=O)[C@H](CCC(N)=O)NC(=O)[C@@H](NC(=O)[C@H](C)NC(=O)[C@@H]1CSSC[C@H](NC(=O)[C@@H](N)CCCCN)C(=O)N[C@@H](CC(N)=O)C(=O)N[C@@H]([C@@H](C)O)C(=O)N[C@@H](C)C(=O)N[C@@H]([C@@H](C)O)C(=O)N1)[C@@H](C)O)C(C)C)C(=O)N[C@@H](CC(C)C)C(=O)N1CCC[C@H]1C(=O)N1CCC[C@H]1C(=O)N[C@H](C(=O)N[C@@H](CC(N)=O)C(=O)N[C@H](C(=O)NCC(=O)N[C@@H](CO)C(=O)N[C@@H](CC(N)=O)C(=O)N[C@H](C(=O)N[C@@H](Cc1ccc(O)cc1)C(N)=O)[C@@H](C)O)C(C)C)[C@@H](C)O
B6: N-alpha-[(S)-4-Carboxy-4-(19-carboxynonadecanoylamino)butyryl]-Gly-[Glu14,His17,His35]-pramlintide (peptide)
peptide: {C20 diacid-γGlu}-GKCNTATCATQRLAEFLHHSSNNFGPILPPTNVGSHTY-NH2
modifications: disulfide 3-8
SMILES: CC[C@H](C)[C@H](NC(=O)[C@@H]1CCCN1C(=O)CNC(=O)[C@H](Cc1ccccc1)NC(=O)[C@H](CC(N)=O)NC(=O)[C@H](CC(N)=O)NC(=O)[C@H](CO)NC(=O)[C@H](CO)NC(=O)[C@H](Cc1c[nH]cn1)NC(=O)[C@H](Cc1c[nH]cn1)NC(=O)[C@H](CC(C)C)NC(=O)[C@H](Cc1ccccc1)NC(=O)[C@H](CCC(=O)O)NC(=O)[C@H](C)NC(=O)[C@H](CC(C)C)NC(=O)[C@H](CCCNC(=N)N)NC(=O)[C@H](CCC(N)=O)NC(=O)[C@@H](NC(=O)[C@H](C)NC(=O)[C@@H]1CSSC[C@H](NC(=O)[C@H](CCCCN)NC(=O)CNC(=O)CC[C@H](NC(=O)CCCCCCCCCCCCCCCCCCC(=O)O)C(=O)O)C(=O)N[C@@H](CC(N)=O)C(=O)N[C@@H]([C@@H](C)O)C(=O)N[C@@H](C)C(=O)N[C@@H]([C@@H](C)O)C(=O)N1)[C@@H](C)O)C(=O)N[C@@H](CC(C)C)C(=O)N1CCC[C@H]1C(=O)N1CCC[C@H]1C(=O)N[C@H](C(=O)N[C@@H](CC(N)=O)C(=O)N[C@H](C(=O)NCC(=O)N[C@@H](CO)C(=O)N[C@@H](Cc1c[nH]cn1)C(=O)N[C@H](C(=O)N[C@@H](Cc1ccc(O)cc1)C(N)=O)[C@@H](C)O)C(C)C)[C@@H](C)O

These binders were tested against T1, human amylin 3(a) receptor (human calcitonin receptor + RAMP-3) (human, UniProt P30988 25-474; O60896 24-148) (assay: cell-based or functional assay).
T1 sequence (looked up) 1: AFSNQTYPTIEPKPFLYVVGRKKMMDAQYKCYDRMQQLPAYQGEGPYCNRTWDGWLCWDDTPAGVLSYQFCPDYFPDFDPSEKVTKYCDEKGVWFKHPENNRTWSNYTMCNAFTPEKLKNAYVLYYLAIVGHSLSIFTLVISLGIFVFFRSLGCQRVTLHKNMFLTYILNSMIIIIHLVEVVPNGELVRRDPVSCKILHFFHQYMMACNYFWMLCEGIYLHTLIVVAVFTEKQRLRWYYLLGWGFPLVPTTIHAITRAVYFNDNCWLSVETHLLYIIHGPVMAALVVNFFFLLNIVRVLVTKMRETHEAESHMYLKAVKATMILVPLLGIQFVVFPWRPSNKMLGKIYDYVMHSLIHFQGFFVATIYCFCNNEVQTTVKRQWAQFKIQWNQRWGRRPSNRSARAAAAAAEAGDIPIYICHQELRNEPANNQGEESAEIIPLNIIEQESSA
T1 sequence (looked up) 2: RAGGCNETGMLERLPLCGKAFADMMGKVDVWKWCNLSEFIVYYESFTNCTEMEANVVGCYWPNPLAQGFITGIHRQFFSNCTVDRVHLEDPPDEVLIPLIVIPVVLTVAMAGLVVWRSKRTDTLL

Row | Amylin receptor human EC50 [pM] | Binder
1 | 366 | B1
2 | 68.5 | B2
3 | 66 | B3
4 | 456 | B4
5 | 89 | B5
6 | 95.5 | B6

Each binder was assayed against T2, human calcitonin (a) receptor (human, UniProt P30988 25-474) (assay: cell-based or functional assay).
T2 sequence (looked up): T1 sequence (looked up) 1

Row | CTa receptor human EC50 [pM] | Binder
7 | 286 | B1
8 | 96.5 | B2
9 | 110 | B3
10 | 4300 | B4
11 | 100 | B5
12 | 70.5 | B6
